The values below are quoted from earlier work in PMC7585440.

Data set [1] has as its target LRP6 E1E2 (Homo sapiens) (UniProt O75581). The experiment in a line: biolayer interferometry.
Data set [2] has as its target LRP6 E1 (Homo sapiens) (UniProt O75581). The experiment in a line: ITC.

SOST, sequence (Q9BQB4 24-213): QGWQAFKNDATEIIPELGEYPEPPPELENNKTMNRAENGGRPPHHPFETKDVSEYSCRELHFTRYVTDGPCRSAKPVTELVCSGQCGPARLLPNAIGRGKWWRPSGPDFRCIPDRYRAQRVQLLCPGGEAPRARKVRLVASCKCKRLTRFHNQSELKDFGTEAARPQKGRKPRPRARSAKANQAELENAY
SOST loop 2 peptide loop 2, sequence (Q9BQB4 110-130): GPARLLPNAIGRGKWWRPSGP
LRP6 E1E2 (Homo sapiens), sequence (O75581 20-630): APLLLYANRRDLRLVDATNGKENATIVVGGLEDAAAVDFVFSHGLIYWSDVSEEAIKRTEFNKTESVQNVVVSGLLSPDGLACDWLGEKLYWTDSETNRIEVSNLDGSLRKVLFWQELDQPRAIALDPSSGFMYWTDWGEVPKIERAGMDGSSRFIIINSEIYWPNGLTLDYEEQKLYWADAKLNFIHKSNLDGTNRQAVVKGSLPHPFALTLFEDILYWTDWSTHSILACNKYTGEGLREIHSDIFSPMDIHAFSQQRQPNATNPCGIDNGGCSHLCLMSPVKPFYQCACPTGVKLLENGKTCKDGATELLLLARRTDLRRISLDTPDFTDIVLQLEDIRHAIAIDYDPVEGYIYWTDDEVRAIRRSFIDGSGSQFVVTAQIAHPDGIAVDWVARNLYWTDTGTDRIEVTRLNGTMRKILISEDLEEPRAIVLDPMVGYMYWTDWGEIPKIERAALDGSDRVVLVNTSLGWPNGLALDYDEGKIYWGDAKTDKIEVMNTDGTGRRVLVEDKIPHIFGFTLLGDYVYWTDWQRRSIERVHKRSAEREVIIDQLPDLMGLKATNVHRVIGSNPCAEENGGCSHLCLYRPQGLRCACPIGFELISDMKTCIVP
LRP6 E1 (Homo sapiens), sequence (O75581 20-326): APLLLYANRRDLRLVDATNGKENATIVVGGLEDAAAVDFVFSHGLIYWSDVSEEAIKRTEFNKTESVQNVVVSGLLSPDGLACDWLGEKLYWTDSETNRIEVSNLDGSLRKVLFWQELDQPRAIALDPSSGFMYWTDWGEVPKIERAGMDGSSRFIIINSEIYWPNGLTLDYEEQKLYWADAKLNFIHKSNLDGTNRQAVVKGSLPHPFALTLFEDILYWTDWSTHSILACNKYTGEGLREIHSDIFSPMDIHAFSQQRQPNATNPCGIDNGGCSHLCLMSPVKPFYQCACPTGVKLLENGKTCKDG

Take SOST (from UniProt Q9BQB4): the Kd in data set [1] is 0.0068 µM.
On to “SOST loop 2 peptide loop 2 (from UniProt Q9BQB4)”, for which, in data set [2], the Kd was 9 µM.
